We go through 94 variants from the supplement of paper PMC10567573.

First the molecules themselves.
B1: PTPN9 (parent)
chain: ILFSLPPALDWDSVHVPGPHAMTI
B2: FAM189A2 (parent)
chain: VAAALRYLQIFATRRSCIDESQIS
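Also: lentivirally expressed fusions sorted by FACS into six bins by GFP to DsRed ratio, PSI derived from sequencing read proportions per bin multiplied by bin number.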

Variants of B1 are the subject of the first series. In words: protein stability index of a GFP-peptide fusion (GPS, HEK-293T) (PSI 1-6); higher = more stable. The following applies: c terminus: a fixed tail appended.
Regarding VLFSLPPALDWDSVHVPGPHAMTI [I1V], the protein stability index is 3.38. In the case of ILFSLWPALDWDSVHVPGPHAMTI [P6W], the protein stability index was found to be 2.15.

With ILFSLIPALDWDSVHVPGPHAMTI [P6I], the protein stability index was found to be 3.44. On the same count and under the same terms, the result for ILFSLAPALDWDSVHVPGPHAMTI [P6A] reads 3.2. ILFSLLPALDWDSVHVPGPHAMTI [P6L]: the protein stability index stood at 4.02. Same read-out and setting: in the case of ILFSLFPALDWDSVHVPGPHAMTI [P6F] it was 1.95; in that of ILFSLRPALDWDSVHVPGPHAMTI [P6R], 3.66. On the same count and under the same terms, the result for ILFSLMPALDWDSVHVPGPHAMTI [P6M] reads 1.89; that for ILFSLCPALDWDSVHVPGPHAMTI [P6C], 2.37; that for ILFSLKPALDWDSVHVPGPHAMTI [P6K], 1.97. Consider ILFSLGPALDWDSVHVPGPHAMTI [P6G], for which the protein stability index is 1.32. The same measure, in the same setting: in the case of ILFSLYPALDWDSVHVPGPHAMTI [P6Y] it was 2.91. The same measure, in the same setting: in the case of ILFSLQPALDWDSVHVPGPHAMTI [P6Q] it was 2.46. Still for that read-out and setting: the result for ILFSQPPALDWDSVHVPGPHAMTI [L5Q] reads 1.47. Turning to ILFSHPPALDWDSVHVPGPHAMTI [L5H], the protein stability index turned out to be 1.76.

Regarding ILFSWPPALDWDSVHVPGPHAMTI [L5W], the protein stability index came out at 2. On the same count and under the same terms, in the case of ILFSVPPALDWDSVHVPGPHAMTI [L5V] it was 3.76; in that of ILFSFPPALDWDSVHVPGPHAMTI [L5F], 4.35; in that of ILFSCPPALDWDSVHVPGPHAMTI [L5C], 2.26.

In the case of ILFSRPPALDWDSVHVPGPHAMTI [L5R], the protein stability index stood at 2.93.

Turning to ILFSNPPALDWDSVHVPGPHAMTI [L5N], the protein stability index was determined as 1.32. With ILFSIPPALDWDSVHVPGPHAMTI [L5I], the protein stability index was determined as 1.33. On the same count and under the same terms, the result for ILFSTPPALDWDSVHVPGPHAMTI [L5T] reads 2.99.

With ILFSMPPALDWDSVHVPGPHAMTI [L5M], the protein stability index was found to be 2.3. The same measure, in the same setting: in the case of ILFSSPPALDWDSVHVPGPHAMTI [L5S] it was 2.25. In the case of ILFSEPPALDWDSVHVPGPHAMTI [L5E], the protein stability index came to 1.47.

ILFSKPPALDWDSVHVPGPHAMTI [L5K]: the protein stability index turned out to be 2.25.

ILFSDPPALDWDSVHVPGPHAMTI [L5D]: the protein stability index came to 2.43. On the same count and under the same terms, the result for ILMSLPPALDWDSVHVPGPHAMTI [F3M] reads 1.21. The same measure, in the same setting: the result for ILHSLPPALDWDSVHVPGPHAMTI [F3H] reads 2.03; that for ILESLPPALDWDSVHVPGPHAMTI [F3E], 1.87; that for ILRSLPPALDWDSVHVPGPHAMTI [F3R], 2.25.

Turning to ILDSLPPALDWDSVHVPGPHAMTI [F3D], the protein stability index was 1.77. With ILCSLPPALDWDSVHVPGPHAMTI [F3C], the protein stability index worked out at 2.62.

With ILKSLPPALDWDSVHVPGPHAMTI [F3K], the protein stability index came out at 1.95.

Regarding ILLSLPPALDWDSVHVPGPHAMTI [F3L], the protein stability index was 4.01. Same read-out and setting: in the case of ILWSLPPALDWDSVHVPGPHAMTI [F3W] it was 1.61; in that of ILYSLPPALDWDSVHVPGPHAMTI [F3Y], 2.21. Take ILQSLPPALDWDSVHVPGPHAMTI [F3Q]: the protein stability index was determined as 3.1.

Take ILTSLPPALDWDSVHVPGPHAMTI [F3T]: the protein stability index was found to be 2.38. With ILNSLPPALDWDSVHVPGPHAMTI [F3N], the protein stability index turned out to be 1.83.

Turning to ILASLPPALDWDSVHVPGPHAMTI [F3A], the protein stability index was 1.1. Regarding ILSSLPPALDWDSVHVPGPHAMTI [F3S], the protein stability index turned out to be 1.49. Regarding ILPSLPPALDWDSVHVPGPHAMTI [F3P], the protein stability index worked out at 2.27. The same measure, in the same setting: the result for ILISLPPALDWDSVHVPGPHAMTI [F3I] reads 2.7. On to ILFSLPDALDWDSVHVPGPHAMTI [P7D], for which the protein stability index stood at 1.01. On the same count and under the same terms, in the case of ILFSLPAALDWDSVHVPGPHAMTI [P7A] it was 1.87; in that of ILFSLPEALDWDSVHVPGPHAMTI [P7E], 2.43; in that of ILFSLPIALDWDSVHVPGPHAMTI [P7I], 2.49. The same measure, in the same setting: in the case of ILFSLPQALDWDSVHVPGPHAMTI [P7Q] it was 2.33. Same read-out and setting: in the case of ILFSLPNALDWDSVHVPGPHAMTI [P7N] it was 2.98; in that of ILFSLPHALDWDSVHVPGPHAMTI [P7H], 4.13. As to ILFSLPRALDWDSVHVPGPHAMTI [P7R], the protein stability index was determined as 2.18. On the same count and under the same terms, the result for ILFSLPVALDWDSVHVPGPHAMTI [P7V] reads 4.23.

Consider ILFSLPFALDWDSVHVPGPHAMTI [P7F], for which the protein stability index was 3.57.

Consider ILFSLPCALDWDSVHVPGPHAMTI [P7C], for which the protein stability index came to 2.03. Still for that read-out and setting: the result for ILFSLPMALDWDSVHVPGPHAMTI [P7M] reads 1.68; that for ILFSLPPALDDDSVHVPGPHAMTI [W11D], 1.75.

For ILFSLPPALDMDSVHVPGPHAMTI [W11M], the protein stability index stood at 2.73. As for ILFSLPPALDEDSVHVPGPHAMTI [W11E], the protein stability index stood at 1.57. Same read-out and setting: in the case of ILFSLPPALDSDSVHVPGPHAMTI [W11S] it was 1.9; in that of ILFSLPPALDYDSVHVPGPHAMTI [W11Y], 3.05; in that of ILFSLPPALDPDSVHVPGPHAMTI [W11P], 2.41. Take ILFSLPPALDHDSVHVPGPHAMTI [W11H]: the protein stability index is 2. On the same count and under the same terms, the result for ILFSLPPALDTDSVHVPGPHAMTI [W11T] reads 2.23.

In the case of ILFSLPPALDLDSVHVPGPHAMTI [W11L], the protein stability index amounted to 2.72. Still for that read-out and setting: the result for ILFSLPPALDQDSVHVPGPHAMTI [W11Q] reads 2.27; that for ILFSLPPALDVDSVHVPGPHAMTI [W11V], 2.38. Regarding ILFSLPPALDADSVHVPGPHAMTI [W11A], the protein stability index is 3.48. Still for that read-out and setting: in the case of ILFSLPPALDNDSVHVPGPHAMTI [W11N] it was 2.26; in that of ILFSLPPALDGDSVHVPGPHAMTI [W11G], 2.23; in that of ILFSLPPALDIDSVHVPGPHAMTI [W11I], 3.5.

Consider ILFSLPPALDRDSVHVPGPHAMTI [W11R], for which the protein stability index stood at 2.11. As for ILFSLPPALDFDSVHVPGPHAMTI [W11F], the protein stability index came out at 3.1. In the case of ILFSLPPALDCDSVHVPGPHAMTI [W11C], the protein stability index is 3.67. The same measure, in the same setting: the result for ILFSLPPALDWSSVHVPGPHAMTI [D12S] reads 3.29; that for ILFSLPPALDWGSVHVPGPHAMTI [D12G], 1.97; that for ILFSLPPALDWISVHVPGPHAMTI [D12I], 4.7.

With ILFSLPPALDWNSVHVPGPHAMTI [D12N], the protein stability index was determined as 2.5. Still for that read-out and setting: in the case of ILFSLPPALDWPSVHVPGPHAMTI [D12P] it was 4.93.

As to ILFSLPPALDWMSVHVPGPHAMTI [D12M], the protein stability index turned out to be 2.88. Same read-out and setting: the result for ILFSLPPALDWTSVHVPGPHAMTI [D12T] reads 2.37. Still for that read-out and setting: in the case of ILFSLPPALDWASVHVPGPHAMTI [D12A] it was 3.66.

As for ILFSLPPALDWQSVHVPGPHAMTI [D12Q], the protein stability index came out at 1.88. Same read-out and setting: the result for ILFSLPPALDWCSVHVPGPHAMTI [D12C] reads 2.75; that for ILFSLPPALDWHSVHVPGPHAMTI [D12H], 2.07.

The next series covers variants of B2. Described as above. The following applies: c terminus: a fixed tail appended.
Regarding VAAALRYLQIFATRRSCIDESQII [S24I], the protein stability index was 2.9. In the case of VAAALRYLQIFATRRSCIDESQIP [S24P], the protein stability index amounted to 4.3. As for VAAALRYLQIFATRRSCIDESQIK [S24K], the protein stability index was determined as 1.16.

Turning to VAAALRYLQIFATRRSCIDESQIY [S24Y], the protein stability index is 1.78.

In the case of VAAALRYLQIFATRRSCIDESQIR [S24R], the protein stability index is 3.04. Take VAAALRYLQIFATRRSCIDESQIT [S24T]: the protein stability index is 2.85. Regarding VAAALRYLQIFATRRSCIDESQIM [S24M], the protein stability index came to 2.07. On the same count and under the same terms, in the case of VAAALRYLQIFATRRSCIDESQIQ [S24Q] it was 2.04.
